Values belong to the substance of their own block, whether it stands above or below them.
Key:
[1] = biological target: Drp1 short GG (minimal GTPase-GED construct of Drp1, short splice variant) (human) (UniProt O00429); experiment: SEC-MALS; GG constructs after 30 min at room temperature with the transition-state analog GDP.AlFx (2 mM GDP, 4 mM MgCl2, 2 mM AlCl3, 20 mM NaF); Drp1 GG 25 μM, Dyn1 GG and GG-PRD 15 μM; Superdex 75 10/300 GL
[2] = biological target: MffΔTM (residues 1–217), dimeric variant; experiment: SEC-MALS; MffΔTM (100 μM) and GST (100 μM) on Superose 6 10/300 GL
[3] = biological target: glutathione S-transferase (GST); experiment: as above

Sequence of glutathione S-transferase (GST) (enzyme) (P08515 2-218): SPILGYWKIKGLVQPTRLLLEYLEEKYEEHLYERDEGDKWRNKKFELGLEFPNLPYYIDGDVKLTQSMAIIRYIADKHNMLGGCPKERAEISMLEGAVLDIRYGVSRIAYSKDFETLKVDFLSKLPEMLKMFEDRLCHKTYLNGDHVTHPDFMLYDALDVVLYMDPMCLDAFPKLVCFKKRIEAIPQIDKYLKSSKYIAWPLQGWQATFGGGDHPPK

stoichiometry N [1]: 2
Substance: Drp1 short GG (minimal GTPase-GED construct of Drp1, short splice variant) (from UniProt O00429-4 1-327; O00429-4 1-327) (domain or fragment)

stoichiometry N [2]: 2
Substance: MffΔTM (residues 1–217), dimeric variant (domain or fragment)

stoichiometry N [3]: 2
Substance: glutathione S-transferase (GST) (enzyme)
